Source: patent US20190271705A1 (published 2019)

Experiments:
Test in all cases: fluorescence polarization
[1] = molecular target: RSKL-pY423
[2] = molecular target: EGFR-pY978
[3] = molecular target: VEGFR1-pY1213mod
[4] = molecular target: EGFR-pY1110
[5] = molecular target: MidT-pY324
[6] = molecular target: TRAF7-pY275mod
[7] = molecular target: SIG11-pY668

Row | Binder | Kd [1] [nM] | Kd [2] [nM] | Kd [3] [nM] | Kd [4] [µM] | Kd [5] [nM] | Kd [6] [nM] | Kd [7] [nM]
1 | S10A (designed binder) MKIEEHHHHHHSSGRENLYFQGGAAQPAAPVDSIQAEEWYFGKLGRKDAERQLLSFGNPRGTFLIRESETTKGAYALSIRDWDDMKGDHVKHYKIRKLDNGGYYITTRAQFETLQQLVQHYSERAAGLSSRLVVPSHKGAAA | 2500 | 1100 | 5800 | 13 | 120 | 1300 | 48
2 | S10V K15L (designed binder) MKIEEHHHHHHSSGRENLYFQGGAAQPAAPVDSIQAEEWYFGKLGRKDAERQLLSFGNPRGTFLIRESETTKGAYVLSIRDWDDMKGDHVKHYLIRKLDNGGYYITTRAQFETLQQLVQHYSERAAGLSSRLVVPSHKGAAA | 1500 | 430 | 1600 | 4.4 | 94 | 2100 | 320
3 | T8V K15L (designed binder) MKIEEHHHHHHSSGRENLYFQGGAAQPAAPVDSIQAEEWYFGKLGRKDAERQLLSFGNPRGTFLIRESETVKGAYSLSIRDWDDMKGDHVKHYLIRKLDNGGYYITTRAQFETLQQLVQHYSERAAGLSSRLVVPSHKGAAA | 530 | 120 | 440 | 1.7 | 140 | 450 | 150
4 | ΔT8 S10A K15L (designed binder) MKIEEHHHHHHSSGRENLYFQGGAAQPAAPVDSIQAEEWYFGKLGRKDAERQLLSFGNPRGTFLIRESETTKGAYSLSIRDWDDMKGDHVKHYKIRKLDNGGYYITTRAQFETLQQLVQHYSERAAGLSSRLVVPSHKGAAA | 6100 |  |  | 15 | 260 | 2700 | 550
5 | T8V S10A K15L (designed binder) MKIEEHHHHHHSSGRENLYFQGGAAQPAAPVDSIQAEEWYFGKLGRKDAERQLLSFGNPRGTFLIRESETVKGAYALSIRDWDDMKGDHVKHYLIRKLDNGGYYITTRAQFETLQQLVQHYSERAAGLSSRLVVPSHKGAAA | 77 | 8.5 | 58 | 0.34 | 11 | 60 | 26
6 | none (wild-type) (other) MKIEEHHHHHHSSGRENLYFQGGAAQPAAPVDSIQAEEWYFGKLGRKDAERQLLSFGNPRGTFLIRESETTKGAYSLSIRDWDDMKGDHVKHYKIRKLDNGGYYITTRAQFETLQQLVQHYSERAAGLSSRLVVPSHKGAAA | 12000 |  |  | 26 | 490 | 6000 | 430
7 | T7S S10A K15L (designed binder) MKIEEHHHHHHSSGRENLYFQGGAAQPAAPVDSIQAEEWYFGKLGRKDAERQLLSFGNPRGTFLIRESESTKGAYALSIRDWDDMKGDHVKHYLIRKLDNGGYYITTRAQFETLQQLVQHYSERAAGLSSRLVVPSHKGAAA | 1500 | 210 | 640 | 1.6 | 49 | 300 | 71
8 | T8I S10A K15L (designed binder) MKIEEHHHHHHSSGRENLYFQGGAAQPAAPVDSIQAEEWYFGKLGRKDAERQLLSFGNPRGTFLIRESETIKGAYALSIRDWDDMKGDHVKHYLIRKLDNGGYYITTRAQFETLQQLVQHYSERAAGLSSRLVVPSHKGAAA | 190 | 32 | 180 | 0.7 | 43 | 330 | 120
9 | T8V (designed binder) MKIEEHHHHHHSSGRENLYFQGGAAQPAAPVDSIQAEEWYFGKLGRKDAERQLLSFGNPRGTFLIRESETVKGAYSLSIRDWDDMKGDHVKHYKIRKLDNGGYYITTRAQFETLQQLVQHYSERAAGLSSRLVVPSHKGAAA | 14000 | 2400 | 24000 | 41 | 370 | 5800 | 1200
10 | S10V (designed binder) MKIEEHHHHHHSSGRENLYFQGGAAQPAAPVDSIQAEEWYFGKLGRKDAERQLLSFGNPRGTFLIRESETTKGAYVLSIRDWDDMKGDHVKHYKIRKLDNGGYYITTRAQFETLQQLVQHYSERAAGLSSRLVVPSHKGAAA | 6500 | 5500 | 9000 | 34 | 360 | 4500 | 660
11 | K15L (designed binder) MKIEEHHHHHHSSGRENLYFQGGAAQPAAPVDSIQAEEWYFGKLGRKDAERQLLSFGNPRGTFLIRESETTKGAYSLSIRDWDDMKGDHVKHYLIRKLDNGGYYITTRAQFETLQQLVQHYSERAAGLSSRLVVPSHKGAAA | 3300 | 670 | 2800 | 5.8 | 420 | 2200 | 450
12 | S10A K15L (designed binder) MKIEEHHHHHHSSGRENLYFQGGAAQPAAPVDSIQAEEWYFGKLGRKDAERQLLSFGNPRGTFLIRESETTKGAYALSIRDWDDMKGDHVKHYLIRKLDNGGYYITTRAQFETLQQLVQHYSERAAGLSSRLVVPSHKGAAA | 1600 | 130 | 400 | 2 | 110 | 480 | 120
13 | K2E T8V S10A K15I (designed binder) MKIEEHHHHHHSSGRENLYFQGGAAQPAAPVDSIQAEEWYFGKLGREDAERQLLSFGNPRGTFLIRESETVKGAYALSIRDWDDMKGDHVKHYIIRKLDNGGYYITTRAQFETLQQLVQHYSERAAGLSSRLVVPSHKGAAA | 2500 | 170 | 580 | 3.8 | 280 | 990 | 900
14 | T8V S10A K15I (designed binder) MKIEEHHHHHHSSGRENLYFQGGAAQPAAPVDSIQAEEWYFGKLGRKDAERQLLSFGNPRGTFLIRESETVKGAYALSIRDWDDMKGDHVKHYIIRKLDNGGYYITTRAQFETLQQLVQHYSERAAGLSSRLVVPSHKGAAA | 880 | 130 | 410 | 1.4 | 98 | 450 | 190
